Consider 27 molecules from patent US20230279126A1 (published 2023).

The target of assay [1] is T1, extracellular domain of mouse IL12RB1 (mIL12Rb1 ECD) (mouse, UniProt Q60837 20-565).
T1 construct: The immunogen was a fusion of the ECD with the human IgG1 hinge and Fc; also called mIL12Rb1 ECD antigen
T1 sequence: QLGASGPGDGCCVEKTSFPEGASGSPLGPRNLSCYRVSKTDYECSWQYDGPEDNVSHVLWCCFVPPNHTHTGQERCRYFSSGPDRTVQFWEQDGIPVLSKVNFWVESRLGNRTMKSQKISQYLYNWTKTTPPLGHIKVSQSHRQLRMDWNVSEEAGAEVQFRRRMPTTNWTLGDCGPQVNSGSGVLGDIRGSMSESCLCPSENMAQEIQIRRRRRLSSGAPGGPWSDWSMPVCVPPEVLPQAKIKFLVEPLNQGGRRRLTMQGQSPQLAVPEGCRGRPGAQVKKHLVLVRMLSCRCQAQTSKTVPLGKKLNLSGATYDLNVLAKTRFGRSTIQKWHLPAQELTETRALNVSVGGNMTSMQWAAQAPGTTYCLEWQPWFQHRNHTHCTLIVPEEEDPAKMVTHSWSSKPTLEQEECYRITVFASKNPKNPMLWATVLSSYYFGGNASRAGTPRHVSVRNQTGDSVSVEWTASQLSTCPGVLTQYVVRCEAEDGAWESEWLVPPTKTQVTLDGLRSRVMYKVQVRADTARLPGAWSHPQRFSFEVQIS
The assay is described as follows: periplasmic extract ELISA (PE-ELISA) of phage clones, colorimetric. Summed up: (§1)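 After multiple rounds of biopanning on the human or mouse extracellular domain, individual phage clones were screened for selective binding by colorimetric periplasmic extract ELISA in 96-well plates. The library was built from camels given human and then mouse receptor extracellular domain–human IgG1 hinge–Fc fusion proteins. Their blood RNA was transcribed, and the roughly 400 bp VHH fragment was placed in frame with a his-tag in a phagemid in E. coli.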
(In general: In an ELISA, binding on a coated surface is turned into a signal by an enzyme label.)

Assay [2] has as its target T2, extracellular domain of human IL12RB1 (hIL12Rb1 ECD) (human, UniProt P42701 24-545).
T2 construct: The immunogen was a fusion of the ECD with the human IgG1 hinge and Fc; also called IL12Rβ1; CD212
The assay is described as above. Summed up:
as §1

B1: mIL12Rb1_VHH3 (VHH)
VHH: QVQLQESGGGSVQAGGSLRLSCVASGYSYCGYDMMWYRQAPGKEREFVALITSDYSIRYEDSVEGRFSISRDNAKNTGYLLMSNLTPADTAIYYCKTSTAARESSWCRSRYRVASWGQGTQVTVSS
notes: Phagemid clone with his-tag, periplasmic extract
In the case of B1, the binding result in assay [1] was “binds”.

B2: mIL12Rb1_VHH11 (VHH)
VHH: QVQLQESGGGSVQAGGSLRLSCVASGYSYCGYDMMWYRQAPGKEREFVALITSDYSIRYEDSVEGRFSISRDNAKNTGYLLMSNLTPADTAIYYCKTSTAARESSWCRSRYRVASWGQGTQVTVSS
notes: as for B1
On to B2, for which the binding result in assay [1] is “binds”.

B3: hIL12Rb1_VHH3 (VHH)
VHH: QVQLQESGGGSVQAGGSLRLSCVASGYSYCGYDMMWYRQAPGKEREFVALITSDYSIRYEDSVEGRFSISRDNAKNTGYLLMSNLTPADTAIYYCKTSTAARESSWCRSRYRVASWGQGTQVTVSS
notes: as for B1
B3: in assay [2], the binding result was “binds”.

B4: hIL12Rb1_VHH8 (VHH)
VHH: QVQLQESGGGSVQAGGSLRLSCVASGYSYCGYDMMWYRQAPGKEREFVALITSDYSIRYEDSVEGRFSISRDNAKNTGYLLMSNLTPADTAIYYCKTSTAARESSWCRSRYRVASWGQGTQVTVSS
notes: as for B1
On to B4, for which the binding result in assay [2] is “binds”.

B5: hIL12Rb1_VHH9 (VHH)
VHH: QVQLQESGGGSVQAGGSLRLSCVASGYSYCGYDMMWYRQAPGKEREFVALITSDYSIRYEDSVEGRFSISRDNAKNTGYLLMSNLTPADTAIYYCKTSTAARESGWCRSRYRVASWGQGTQVTVSS
notes: as for B1
For the molecule B5, in assay [2], the binding result was “binds”.

B6: mIL12Rb1_VHH13 (VHH)
VHH: QVQLQESGGGSVQAGGSLRLSCVASGYSYCGYDMMWYRQAPGKEREFVALITSDYSIRYEDSVEGRFSISRDNAKNTGYLLMSNLTPADTAIYYCKTSTAARESGWCRSRYRVASWGQGTQVTVSS
notes: as for B1
As for B6, in assay [1], the binding result is reported as “binds”.

B7: mIL12Rb1_VHH1 (VHH)
VHH: QVQLQESGGGSVQAGGSLRLSCTASGYTYSSAFMAWFRQAPGKEREGVAAIYTRDGGTVYADSVKGRFTISQDNAKNTLYLQMNSLKAEDTAMYYCAAKIPQPGRASLLDSQTYDYWGQGTQVTVSS
notes: as for B1
For the molecule B7, the binding result in assay [1] is “binds”.

B8: mIL12Rb1_VHH18 (VHH)
VHH: QVQLQESGGGSVQAGGSLRLSCTASGYTYSSAFMAWFRQAPGKEREGVAAMYTRDGGTVYADSVKGRFTISQDNAKNTLYLQMNSLKTEDTAMYYCAAKIPQPGRASLLDSQTYDYWGQGTQVTVSS
notes: as for B1
Turning to B8, in assay [1], the binding result is “binds”.

B9: mIL12Rb1_VHH6 (VHH)
VHH: QVQLQESGGGSVQAGGSLRLSCTASGYTYSSAFMAWFRQAPGKEREGVAAIYTRDGSPVYADSLKGRFTISQDNAKNTLHLQMNSLKPEDTAMYYCAAKIPEPGRISLLDSQTYDYWGHGTQVTVSS
notes: as for B1
In the case of B9, the binding result in assay [1] is recorded as “binds”.

B10: mIL12Rb1_VHH17 (VHH)
VHH: QVQLQESGGGSVQAGGSLRLSCTASGYTYSSAFMAWFRQAPGKEREGVAAMYTRDGGTVYADSVKGRFTISQDNAKNTLYLQIHTLKAEDTAMYYCAAKIPQPGRASLLDSQTYDYWGQGTQVTVSS
notes: as for B1
Regarding B10, the binding result in assay [1] is reported as “binds”.

B11: mIL12Rb1_VHH22 (VHH)
VHH: QVQLQESGGGSVQAGGSLRLSCTASGYTYSSAFMAWFRQAPGKEREGVAAIYTRDGGTVYADSVKGRFTISQDNAKNILYLQMNSLKAEDTAMYYCAAKIPQPGRASLLDSQTYDYWGQGTQVTVSS
notes: as for B1
Turning to B11, the binding result in assay [1] is listed as “binds”.

B12: mIL12Rb1_VHH23 (VHH)
VHH: QVQLQESGGGSVQAGGSLRLSCTASGYTYSSAFMAWFRQAPGKEREGVAAIYTRDGGTVYADSVKGRFTISQDNAKNTLYLQMNSLKPEDTAMYYCAAKMPQPGRASLLDSQTYDYWGQGTQVTVSS
notes: as for B1
For the molecule B12, the binding result in assay [1] is “binds”.

B13: mIL12Rb1_VHH2 (VHH)
VHH: QVQLQESGGGSVQAGGSLRLSCAVSGYDYCGYDVRWYRQAPGKEREFVSGIDSDGSTSYADSVKGRFTISQDNAENTSYLHMFSLKPEDTAMYYCKTESPAGESAWCRNFRGMDYWGKGTQVTVSS
notes: as for B1
For the molecule B13, the binding result in assay [1] was “binds”.

B14: mIL12Rb1_VHH10 (VHH)
VHH: QVQLQESGGGSVQAGGSLRLSCAVSGYDYCGYDVRWYRQAPGKEREFVSGIDSDGSTSYADSVKGRFTISQDNAENTSYLHMFSLKPEDTAMYYCKTESPAGESAWCRNFRGMDYWGKGTQVTVSS
notes: as for B1
For the molecule B14, in assay [1], the binding result was “binds”.

B15: mIL12Rb1_VHH16 (VHH)
VHH: QVQLQESGGGSVQAGGSLRLSCAVSGYDYCGYDVRWYRQAPGKEREFVSGINSDGSTSYADSVKGRFTISQDNAENTSYLHMFSLKPEDTAMYYCKTEGPAGESAWCRNFRGMDYWGKGTQVTVSS
notes: as for B1
For B15, the binding result in assay [1] is on record as “binds”.

B16: mIL12Rb1_VHH21 (VHH)
VHH: QVQLQESGGGSVQAGGSLRLSCAVSGYDYCGYDVRWYRRAPGKEREFVSGIDSDGSTSYADSVKGRFTISQDNAENTSYLHMFSLKPEDTAMYYCKTESPAGESAWCRNFRGMDYWGKGTQVTVSS
notes: as for B1
Turning to B16, in assay [1], the binding result is recorded as “binds”.

B17: mIL12Rb1_VHH7 (VHH)
VHH: QVQLQESGGGSVQAGGSLRLSCAVSGYDYCGYDVRWYRRAPGKEREFVSGIDSDGSTSYADSVKGRFTISQDNAENTSYLHMFSLKPEDTAMYYCKTESPAGESAWCRNFRGMDYWGKGTQVTVSS
notes: as for B1
On to B17, for which, in assay [1], the binding result is reported as “binds”.

B18: mIL12Rb1_VHH9 (VHH)
VHH: QVQLQESGGGSVQAGGSLRLSCVASGYGYCGYDMSWYRQAPGKEREFVALITSDRSISYEDSVKARFIISRDNAANTGYLDMTRLTPDDTAIYYCKTSAAARESSWCRSRYRVASWGQGTQVTVSS
notes: as for B1
Take B18: in assay [1], the binding result is “binds”.

B19: mIL12Rb1_VHH19 (VHH)
VHH: QVQLQESGGGSVQAGGFLRLSCVASGYGYCGYDMSWYRQVPGKEREFVALITSDRSVSYEDSVKGRFSISRDNAKNTAYLEMNRLTPDDTAIYYCKTSTAARENNWCRSRYRIASWGQGTQVTVSS
notes: as for B1
For B19, the binding result in assay [1] is reported as “binds”.

B20: mIL12Rb1_VHH8 (VHH)
VHH: QVQLQESGGGSVQAGGFLRLSCVASGYGYCGYDMSWYRQAPGKEREFVALITSERVISYEDSVKGRFSISRDNAENTGYLEMNRLTPDDTAIYYCKTSAAARESSWCRSRYRVASWGQGTQVTVSS
notes: as for B1
Consider B20, for which, in assay [1], the binding result is listed as “binds”.

B21: mIL12Rb1_VHH20 (VHH)
VHH: QVQLQESGGGSVQAGGSLRLSCVASGYGYCGYDMSWYRQTPGKEREFVALITSDRIASYEDSVKGRFIISRDNAKNTGYLDMTRVTPDDTAIYYCKTSAAARENSWCRSRYRVASWGQGTQVTVSS
notes: as for B1
For the molecule B21, in assay [1], the binding result is reported as “binds”.

B22: mIL12Rb1_VHH15 (VHH)
VHH: QVQLQESGGGSVQAGGFLRLSCVASGYGYCGYDMSWYRQVPGKEREFVALITSDRSVSYEDSVKGRFSISRDNAKNTAYLEMNRLTPDDTAVYYCKTSTAARENNWCRSRYRIAYWGQGTQVTVSS
notes: as for B1
On to B22, for which the binding result in assay [1] is “binds”.

B23: mIL12Rb1_VHH5 (VHH)
VHH: QVQLQESGGGSVQAGETLRLSCTVSGFTIDDSEMGWYRQAPGHECELVASGSSDDDTYYVDSVKGRFTISLDNAKNMVYLQMNSLKPEDTAVYYCATGPTYPPKDGDCAHWGQGTQVTVSS
notes: as for B1
On to B23, for which, in assay [1], the binding result was “binds”.

B24: hIL12Rb1_VHH6 (VHH)
VHH: QVQLQESGGGSVQAGGSLRLSCAASRYTYTNNFMAWFRQAPGKEREGVAAIYTGDGYAYYFYSVKGRFTISQDNDENMLYLQMNSLKPEDTAMYYCAAMERRIGTRRMTENAEYKYWGQGTQVTVSS
notes: as for B1
B24: the binding result in assay [2] is on record as “binds”.

B25: mIL12Rb1_VHH4 (VHH)
VHH: QVQLQESGGGSVQAGGSLRLSCAASRYTYTNNFMAWFRQAPGKEREGVAAIYTGDGYAYYFDSVKGRFTISQDNDKNMLYLQMNSLKPEDTAMYYCAAMERRSGRRRMTENAEYKYWGQGTQVTVSS
notes: as for B1
For B25, in assay [1], the binding result is reported as “binds”.

B26: hIL12Rb1_VHH18 (VHH)
VHH: QVQLQESGGGSVQAGGSLRLSCAASRYTYTNNFMAWFRQAPGKEREGVAAIYTGDGYAYYFDSVKGRFTISQDNDKNMLYLQMNSLKPEDTAMYYCAAMERRSGRRRMTENAEYKYWGQGTQVTVSS
notes: as for B1
Consider B26, for which the binding result in assay [2] is reported as “binds”.

B27: mIL12Rb1_VHH12 (VHH)
VHH: QVQLQESGGGSVQAGGSLRLSCAASRYTYTNNFMAWFRQAPGKEREGVAAIYTGDGYAYYFYSVKGRFTISQDNDENMLYLQMNSLKPEDTAMYYCAAMERRIGTRRMTENAEYKYWGQGTQVTVSS
notes: as for B1
On to B27, for which the binding result in assay [1] was “binds”.
